Reference: patent publication US10078082B2, “Detection of free and protein-bound non-human gal-alpha(1-3)-gal epitope” (National University of Ireland, Galway, priority 2012, dated 2018)
Where “and” joins values, the source holds several entries; their conditions need not be identical. Equal entries are not always repeated.

Legend:
[1] = system: scFv G12; experiment: Competitive ELISA specificity study: inhibition of scFv binding to Gal-α-(1→3)-Gal-BSA by free sugars; parameters: species or system chicken; details: highest concentration 1 mg/mL
Procedure: (§1) Each scFv was evaluated in a competitive ELISA format using free Gal-α-(1,3)-Gal as standard. Microtitre plate wells were coated and blocked as previously described. Standard solutions were prepared in PBS (pH 7.2), ranging in concentration from 2 μg/ml (5.84 μM) to 20 mg/ml (58.4 mM). For the assay, 50 μl of each standard and buffer blank were added to designated wells in triplicate, followed by 50 μl of a sub-saturating concentration (1 μg/ml) of the appropriate scFv, giving a final standard concentration in the assay of 1 μg/ml (2.92 μM) to 10 mg/ml (29.2 mM). The plate was incubated for 1 hour at 37° C. with shaking After washing, bound scFv was detected as previously described. The ratios of the OD for each standard versus the OD given by the blank (B/Bo) were plotted versus standard concentration and standard curve plotted using SigmaPlot (v11, Systat Software Inc). The detection limits were determined as the concentration corresponding to the mean response for zero standard minus three times the standard deviation (SD). Inhibition of scFv by a panel of free sugars. scFv binding to Gal-α-(1→3)-Gal-BSA was determined against a panel of 21 free form sugars; D-Cellibiose, Melibiose, D-Raffinose, Lactulose, Palatinose, β-Gentibiose, D+ Trehalose, D+ Turanose, L− Fructose, D+ Glucose, Sucrose, Galacto-N-biose, 4β-Galactobiose, gal-α(1-3)-gal-β-(1-4)-gal, gal-α(1-3)-gal-β-(1-4)-glc, gal-α(1-3)-gal-β-(1-4)-gal-all-3)-gal, Laminarbiose, β1-4-D-Xylobiose, N-Acetyl-D-glucoseamine (GlcNAc), Galactose, N-Acetyl-D-lactosamine (LacNAc), (sourced from Sigma Aldrich and Dextra, UK). Inhibitions were performed by serial dilutions of free sugars and a sub-saturating concentration scFv added to each dilution and pre-incubated for 60 minutes at 37° C., prior to performing ELISA against Gal-α-(1→3)-Gal-BSA as used throughout. The percent binding of the scFv was plotted against the […], and the 50% effective dose determined (ED50; dose of free sugar causing 50% displacement of the scFv).

[2] = system: scFv A4; experiment: as above; parameters: species or system chicken; details: highest concentration 1 mg/mL
Procedure: as §1

[3] = system: scFv A11; experiment: as above; parameters: species or system chicken; details: highest concentration 1 mg/mL
Procedure: as §1

[4] = NGC microarray specificity analysis (over 50 structures); type: binding; details: FIG. 8
From the text: FIG. 8: Comparison of the specificity of selected scFv fragments A4, A11 and G12 against a panel of related NGCs compared directly to the specificity binding pattern of the lectin GS-1-B4, considered as highly specific for α-Gal residues.
The spectacular specificity of the scFvs has also been determined by analysis on an NGC microarray containing over 50 different structures. […] ScFv-based competitive ELISA. Competitive ELISAs were established with each of the three scFvs examined using as standard the free Gal-α-(1→3)-Gal disaccharide within the concentration range 0.001 to 10000 μg/ml (2.93 nM to 29.3 mM). […] A panel of 21 related sugars were tested in the scFv-based competitive assays (Table 1). […] All three scFvs were more reactive to the disaccharide than Gal-α-(1,3)-Gal-containing trisaccharides, as shown by lower inhibitory activity of the trisaccharides and supporting the results obtained in the direct ELISA.

[5] = Thermal denaturation monitored by far UV CD ellipticity; type: physicochemical
Procedure: (§2) Two types of experiments were performed: firstly, the near UV circular dichroism (CD) spectra of the scFvs in the absence and presence of 4 mM of both disaccharides have been compared. Secondly, the effect of the disaccharides on the thermal stability of the scFvs has been studied.
Samples were diluted in NaPi (10 mM)-NaCl (150 mM) pH 7.2 and either concentrated by ultrafiltration twice (for small amounts) or exhaustively dialyzed. CD spectra were acquired at 20° C. in a J-810 spectropolarimeter, equipped with a Peltier temperature control system, using a bandwidth of 1 nm, a scan rate of 20 nm/min and a response time of 4 s, collecting data every 0.2 nm and 3 accumulations for each spectrum. Near-UV spectra were registered at around 1.0 mg ml^−1 protein concentration in 1-cm path-length cells while far-UV spectra were recorded in 0.1 cm path-length quartz cells at a protein concentration of around 0.2 mg ml^−1. For all CD spectra, the corresponding buffer baseline was subtracted. […] Ellipticity changes were collected every 0.2° C. and spectra were collected every 10° C. The thermal denaturation profiles were fitted to a sigmoidal function using the equation:—
where Θ(T) represents the ellipticity at temperature T (Kelvin), ΘN the ellipticity of the native protein, n the number of transitions, ΔΘ1 the ellipticity increment of transition i, R the gas constant and Tmi and HDi the temperature at the transition midpoint (melting temperature) and the parameter which describes the cooperativity (slope) of the corresponding transition, respectively.
In the second set of experiments, the thermal stability of the scFvs in the absence and presence of the disaccharides was investigated. With this type of experiment, we were able to get: 1) the far UV CD spectra at increasing temperatures, which gave information on changes in the secondary structure of the proteins upon heating and 2) the profile of the change in ellipticity at a certain wavelength, also with increasing temperatures, that allowed the calculation of the temperature of transition (Tm). Direct comparison of the Tm in the absence and presence of sugar provided information about the effect of the sugar on the scFvs, a thermal stabilisation (i.e. an increase in the Tm in the presence of the sugar) being indicative of interaction.

[6] = Near UV circular dichroism interaction study with disaccharides; type: binding; details: pH 7.2, 20° C.
Procedure: The scFvs A4, A11 and G12 were used to check their interaction with Galα(1,3)Galβ1-OMe (Carbosynth) and with melibiose, the latter as negative control.
as §2
Samples were diluted in NaPi (10 mM)-NaCl (150 mM) pH 7.2 and either concentrated by ultrafiltration twice (for small amounts) or exhaustively dialyzed. CD spectra were acquired at 20° C. in a J-810 spectropolarimeter, equipped with a Peltier temperature control system, using a bandwidth of 1 nm, a scan rate of 20 nm/min and a response time of 4 s, collecting data every 0.2 nm and 3 accumulations for each spectrum. Near-UV spectra were registered at around 1.0 mg ml^−1 protein concentration in 1-cm path-length cells while far-UV spectra were recorded in 0.1 cm path-length quartz cells at a protein concentration of around 0.2 mg ml^−1. For all CD spectra, the corresponding buffer baseline was subtracted. Thermal stability was evaluated by measuring ellipticity changes at 208 nm while increasing temperature from 20 to 90° C., with a constant rate of 40° C./h. Ellipticity changes were collected every 0.2° C. and spectra were collected every 10° C. The thermal denaturation profiles were fitted to a sigmoidal function using the equation:—

[7] = scFv-based competitive ELISA, free Gal-α-(1→3)-Gal as standard, immobilized Gal-α-(1→3)-Gal-BSA; type: binding; details: free Gal-α-(1→3)-Gal disaccharide standard; plates coated with Gal-α-(1→3)-Gal-BSA 10 μg/ml; FIG. 6; listed as G12
Procedure: as §1, with “FIG. 6: Standard curves for competitive ELISA given by scFv clones G12, A4, and A11. Plates were coated with immobilized Gal-α-(1→3)-Gal-BSA [10 μg/ml] and incubated with 2.5 μg/ml of the scFvs in the presence of an increasing concentrations of free Gal-α-(1→3)-Gal. The error bars indicate the standard error of the mean of triplicate determinations. Each” for “Each”

[8] = +4 mM Galα(1,3)Galβ1-OMe, λ 208
[9] = +4 mM Galα(1,3)Galβ1-OMe, λ 218
[10] = in the presence of 4 mM Galα(1,3)Galβ1-OMe, 208 nm

OC[C@H]1O[C@H](O[C@H]2[C@@H](O)[C@@H](CO)O[C@@H](O[C@@H]3[C@H](O)[C@@H](O)[C@@H](O[C@H]4[C@@H](O)[C@@H](CO)OC(O)[C@@H]4O)O[C@@H]3CO)[C@@H]2O)[C@H](O)[C@@H](O)[C@H]1O (stereo partly drawn) [gal-α(1,3)-gal-β-(1,4)-gal-α-(1,3)-gal]
% Maximum inhibition at Max Conc G12 [1]: 73.54% | % Maximum inhibition at Max Conc A4 [2]: 73.48% | % Maximum inhibition at Max Conc A11 [3]: 78.41%

OC[C@H]1O[C@H](O[C@H]2[C@@H](O)[C@@H](CO)O[C@@H](O[C@H]3[C@H](O)[C@@H](O)C(O)O[C@@H]3CO)[C@@H]2O)[C@H](O)[C@@H](O)[C@H]1O (stereo partly drawn) [gal-α(1,3)-gal-β-(1,4)-glc]
% Maximum inhibition at Max Conc G12 [1]: 83.03% | % Maximum inhibition at Max Conc A4 [2]: 66.20% | % Maximum inhibition at Max Conc A11 [3]: 73.88%

OCC1OC(OC2C(O)C(CO)OC(OC3C(CO)OC(O)C(O)C3O)C2O)C(O)C(O)C1O (stereo not drawn) [gal-α-(1,3)-gal-β-(1,4)-gal]
% Maximum inhibition at Max Conc G12 [1]: 64.43% | % Maximum inhibition at Max Conc A4 [2]: 68.18% | % Maximum inhibition at Max Conc A11 [3]: 76.83%

gal-α(1,3)-gal-BSA [gal-α(1,3)-gal-BSA (NGC)]
% Maximum inhibition at Max Conc G12 [1]: 33.93% | % Maximum inhibition at Max Conc A4 [2]: 36.4% | % Maximum inhibition at Max Conc A11 [3]: 51.06%

B1: scFv G12: chicken anti-Gal-α-(1→3)-Gal single chain antibody fragment, Seq Id No. 3; clone F1 has the same sequence (protein)
scFv: QAALTQPSSVSANPGETVKITCSGGSYHYGWYQQKSPGSAPVTVIYSNNQRPSGIPSRFSGSTSDSTGTLTITGVQADDEAVYFCGSYDSSNTYAGIFGAGTTLTVLGQSSRSSSGGGSSGGGGSAVTLDESGGGFQTPGGALSLVCKASGFTFSSYSMQWVRQAPGKGLEFVAGIGNSDRYTYFGPAVKGRATISRDNGQSTLRLQLNNLRAEDTATYFCARSGDSGNGCTHPWCSADNINAWGHGTEVIVSSTSGQAGQ
modifications: Synthetic protein sequence for scFv-G12 antibody fragment for detecting non-human Gal-alpha(1-3)-Gal
Specificity for the Gal-α-(1→3)-Gal epitope compared with GS-1-B4 [4]: much higher specificity | HD [5, 8]: 71 ± 5 kcal/mol | Tm [5, 8]: 73.5 ± 0.3 °C | HD [5, 9]: 137 ± 24 kcal/mol | Tm [5, 9]: 74.3 ± 0.4 °C | HD ([5]; +4 mM melibiose, λ 218): 116 ± 16 kcal/mol | Tm ([5]; +4 mM melibiose, λ 218): 66.5 ± 0.3 °C | HD ([5]; Pure scFv, λ 208): 64 ± 4 kcal/mol | Tm ([5]; Pure scFv, λ 208): 64.7 ± 0.2 °C | HD ([5]; Pure scFv, λ 218): 116 ± 21 kcal/mol | Tm ([5]; Pure scFv, λ 218): 66.4 ± 0.4 °C | Change in cooperativity (HD) [5, 10]: +6.8 Kcal/mol | Stabilisation (increase in Tm) [5, 10]: 8.8 °C | Change of near UV CD spectrum ([6]; 4 mM Galα(1,3)Galβ1-OMe): a clear change was detected | Change of near UV CD spectrum ([6]; 4 mM melibiose (negative control)): did not cause any significant changes | ED50 [7]: 158 μg/ml and 0.46 mM
